Test results published in the DeepSol protein solubility set.

Assay: soluble on expression in E. coli; label from the status in PepcDB or PDB records

| Sequence | soluble on expression in E. coli |
| --- | --- |
| MEQTTIDGISLSLAGPVELTLRWVGQDELLKQLLAAWMVIDEKDIPFNPRLIGKPGVGKTTLAYAAARRLDRPVYLFQATMDTRPEDLIITPVIGPDGKIQYAASALVSAMLKGGVLILDEGNRMSEKAWASLAPLLDDRRYVESIITGLRVPAHRDFRIVVTMNEDSSTFEVPEYIHSRLQPQIFIDFPEADEELLILKENLPFAPSRILAYVVDFLQRAHAADELYSVRDGINIARYALKMMAATERDSVELLPLAVERVLGDEALRYLKLEHHHHHH | not soluble |
| SQPKVPEWVNTPSTCCLKYYEKVLPRRLVVGYRKALNCHLPAIIFVTKRNREVCTNPNDDWVQEYIKDPNLPLLPTRNLSTVKIITAKNGQPQLLNSQ | soluble |
| MGSDKIHHHHHHMSIIYRRRSIRKYQKKDVPDELVKEIIRAAMHAPSACNQQPWHFVVIRNEETKKKIAEIHPHAQMSAEAPVVILVCGDPTLEKCKGYWIQDCSAAVENLLLRATELGLGAVWCGVYPREERVKAFRELLGIPEHVVPFALVPVGYPAEHPVQVDRFKPERIHYEKW | not soluble |
| AHHHHHHGSPITKVTRNYQITIPAEIRKALGIKEGELLEVRLENGKIIIERLKKERKTLKLGKKLTLEEIEKAIEEGMKQCMQMHAVIDTNVLIYDTFSDSEFHKESRSLLNSLDRWYIPSIVLQEYVWFFRSQGFSSREAKIMLSEYISDPRFRGLVEDHNVILRAIDILERENLSLSRFNDMIILVHAIEKGTLATFDQKLRKLARKLSVEILP | soluble |
| MGSDKIHHHHHHMSKKFNCSIKRIRFDENYRPADSTRLTTNFANLARGEHREENLRKTLRMINNRFNALAHWDNPTADRYSVEVDIISIDMDVAGNGHTFPVIETLKTTIVDHKENTRIDGMMGNSFSSYVRDYDFSVVLPEHFNNHSTSPVSAPPEDFGDLHGKLFQYLLNSEAYKAQFNNKLVICLSVSTSKTYHRTTNQHPVLGVEYKQDDYSLTDDYFHKMGLTVRYFMPANSAAPLAFYFAGDLLTDYTDLELISAISTMETFQKIYRPEIYNANATAGEVYQPSLKYQDYSLTQIVYDRAERSQMAVKQGKFTEEQFIKPYQAILEEWAASYDVASKKNLHQ | not soluble |
| GQYKIQIFEKGDFSGQMYETTEDCPSIMEQFHMREIHSCKVLEGVWIFYELPNYRGRQYLLDKKEYRKPIDWGAASPAVQSFRRIVE | soluble |
| GKPKTDTDFQTYNGDGFKLQIPSKWNPNKEVEYPGQVLRFEDNFDATSNVIVAITPTDKKSITDFGSPEQFLSQVDYLLGRQAYSGKTDSEGGFESDAVAIANVLETSTAEVGGKQYYYLSILTRTADGNEGGKHQLVTATVNDGKLYICKAQAGDKRWFKGAKKFVENTATSFSLA | soluble |
| GSMEPPNLYPVKLYVYDLSKGLARRLSPIMLGKQLEGIWHTSIVVHKDEFFFGSGGISSCPPGGTLLGPPDSVVDVGSTEVTEEIFLEYLSSLGESLFRGEAYNLFEHNCNTFSNEVAQFLTGRKIPSYITDLPSEVLSTPFGQALRPLLDSIQIQPPGGSSVGRPNGQS | soluble |
| MKKNFFSDLPEETIVNTLSFLKANTLARIAQTCQFFNRLANDKHLELHQLRQQHIKRELWGNLMVAARSNNLEEVKKILKKGIDPTQTNSYHLNRTPLLAAIEGKAYQTANYLWRKYTFDPNFKDNYGDSPISLLKKQLANPAFKDKEKKQIRALIRGMQEEKIAQSKCLVC | not soluble |
| MDYLSFIAVAAHEFVHTWNVKQYRPKGIVPYDYQQENYSNLLWLVEGSTSYLQYQLLLRGNLMTTDEFFTALAKRITAHAHKPGKESQSVAQASFDAWISEGGDYGNNHSVNILEHHHHHH | soluble |
| MAHHHHHHMSTSTTHVQKETILSLNYYEIFSLDPSARDVDFGSVHRAYRRFALLFHPDKDPSPAARAAFERVKLAAETLTDPQMRREYDEELLQKLQRSTGTGATSAWQRQQRDVMEEEALAADMILRQKEAATAAKAAAKREEELEKEAAAKQMLHELTNALTTPFKRMEEELVHEWEIDEDLLSMKEKEVESLLQKLREYNEGQGRHGRSVDAHTCGTKRRRSEEETASKV | soluble |
| MGSDKIHHHHHHMPRDTLVSHRQSVDIGGKFSGKTVLTLDVYGTLIDWERGICDALGPILRGHGLSTSEDEMLERYATHESALEAGPYLTYREILEESLLRIAADLGFTPSEYELDIFSHSVGDWPAFADSRAALVALQKRFRLAVITNGDDEFFSLSNKHLKIQFDYVVTAQQARSYKPSLNNFHVALGRIDAPRSQILHVAQSLYHDHVPAQALGLQTVWINRRRGKPGFGAVPKAEAVPDAEFDDMRAFADAMLER | not soluble |
